Measurements taken from article PMC8069203, “Highly Sensitive Electrochemical Aptasensor for Detecting the VEGF165 Tumor Marker with PANI/CNT Nanocomposites”.

Biological target: VEGF165 (UniProt P15692-4 27-191)
Assay: electrochemical aptasensor; PANI/CNT electrode; linear 0.5 pg/mL to 1 ug/mL, LOD 0.4 pg/mL (not a Kd); PBS rinsing, ferri/ferrocyanide redox probe; aptamer immobilized on PANI/CNT screen-printed carbon electrode; pH, salt and temperature not given in the material
Conditions: protein: commercial; chain copies: 2

Sequence of VEGF165 (P15692 other isoform, or with tags, fused parts or gaps): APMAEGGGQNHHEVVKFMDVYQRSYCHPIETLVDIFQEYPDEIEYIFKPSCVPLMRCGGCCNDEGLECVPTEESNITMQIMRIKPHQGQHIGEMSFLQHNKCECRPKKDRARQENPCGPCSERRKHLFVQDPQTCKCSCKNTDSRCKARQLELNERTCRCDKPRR

AUGCAGUUUGAGAAGUCGCGCAU (structured_RNA, 5'-NH2, coupled by amide bond to PANI/CNT carboxyl groups (DMT-MM)) [anti-VEGF165 RNA aptamer]: binds.
